Here are results for five molecules from US20220259307A1 (Memorial Sloan Kettering, published 2022).

Changes are numbered by the printed parent chain. Numbers in names are those of the source.

In assay [1] the target is T1, CD33 (immobilized on CM5 sensor chip) (UniProt P20138 18-259, limits assumed).
T1 construct: also called CD33 antigen
Description: SPR (Biacore T-200), CD33 immobilized on CM5 chip. (In SPR one partner is held on a chip, and binding of the other changes the refractive index at the surface.)

The target in assay [2] is full length CD33 on cells (human, UniProt P20138 18-364). Description: cell-based or functional assay.
Sequence of full length CD33 on cells (P20138 18-364): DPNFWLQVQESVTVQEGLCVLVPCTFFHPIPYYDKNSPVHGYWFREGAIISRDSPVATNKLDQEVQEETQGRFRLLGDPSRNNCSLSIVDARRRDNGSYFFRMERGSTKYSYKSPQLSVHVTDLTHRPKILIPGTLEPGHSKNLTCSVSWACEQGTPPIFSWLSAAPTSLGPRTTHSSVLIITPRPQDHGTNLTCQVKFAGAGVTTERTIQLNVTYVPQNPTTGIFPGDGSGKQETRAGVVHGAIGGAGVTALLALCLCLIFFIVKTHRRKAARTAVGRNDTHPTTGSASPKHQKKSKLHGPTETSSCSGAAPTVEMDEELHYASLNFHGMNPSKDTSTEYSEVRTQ

T1 sequence (P20138 18-259 limits assumed): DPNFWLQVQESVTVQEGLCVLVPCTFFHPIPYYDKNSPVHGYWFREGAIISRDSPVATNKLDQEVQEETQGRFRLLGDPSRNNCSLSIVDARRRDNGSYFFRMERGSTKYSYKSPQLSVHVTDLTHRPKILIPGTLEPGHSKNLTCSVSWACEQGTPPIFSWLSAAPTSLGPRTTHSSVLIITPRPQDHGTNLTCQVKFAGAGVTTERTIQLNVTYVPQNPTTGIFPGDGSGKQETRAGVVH

B1: chimeric HIM34×CD3 bispecific antibody (chHIM34 BsAb) (bispecific antibody)
light: DIVMTQSPSSLSASLGGKVTITCKASQDINKYIAWYQHKPGKGPRLLIHYTSTLQPGIPSRFSGSGSGRDYSFSISNLEPEDIATYYCLQYDNLLTFGAGTKLELKRTVAAPSVFIFPPSDEQLKSGTASVVCLLNNFYPREAKVQWKVDNALQSGNSQESVTEQDSKDSTYSLSSTLTLSKADYEKHKVYACEVTHQGLSSPVTKSFNRGECTSGGGGSGGGGSGGGGSQVQLVQSGGGVVQPGRSLRLSCKASGYTFTRYTMHWVRQAPGKCLEWIGYINPSRGYTNYNQKFKDRFTISRDNSKNTAFLQMDSLRPEDTGVYFCARYYDDHYSLDYWGQGTPVTVSSGGGGSGGGGSGGGGSGGGGSGGGGSGGGGSDIQMTQSPSSLSASVGDRVTITCSASSSVSYMNWYQQTPGKAPKRWIYDTSKLASGVPSRFSGSGSGTDYTFTISSLQPEDIATYYCQQWSSNPFTFGCGTKLQITR
heavy: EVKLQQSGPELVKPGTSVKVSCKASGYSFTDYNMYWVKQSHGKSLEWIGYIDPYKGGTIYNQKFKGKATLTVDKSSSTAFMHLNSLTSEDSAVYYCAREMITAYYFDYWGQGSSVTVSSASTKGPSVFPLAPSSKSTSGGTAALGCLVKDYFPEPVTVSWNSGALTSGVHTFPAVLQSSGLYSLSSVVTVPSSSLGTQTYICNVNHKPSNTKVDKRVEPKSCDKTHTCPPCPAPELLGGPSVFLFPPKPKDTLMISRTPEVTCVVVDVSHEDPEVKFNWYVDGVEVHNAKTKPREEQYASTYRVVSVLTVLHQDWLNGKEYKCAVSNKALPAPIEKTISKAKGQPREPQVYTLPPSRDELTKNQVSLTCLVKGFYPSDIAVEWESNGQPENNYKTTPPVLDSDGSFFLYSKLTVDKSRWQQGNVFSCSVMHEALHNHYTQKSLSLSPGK
notes: IgG-scFv format (tetravalent); also called chHIM34×CD3 BsAb; chimeric CD33-BsAb
As to B1, in assay [1], the Kd (usually a measure of binding affinity in units of concentration) was found to be 128 pM; the koff (in general, a measure of how fast the partners let go of each other) was 0.000117 s⁻¹; the on-rate (kon) (in general, the rate constant with which the complex forms) came out at 914000 M⁻¹ s⁻¹. Besides, in assay [2], the “EC50 of T cell cytotoxicity, 4-hour 51Cr release assay, C1498-CD33 cells” value was 0.001 pM and the “EC50 of T cell cytotoxicity, 4-hour 51Cr release assay, THP1 cells” value turned out to be 0.2 pM.

B2: humanized HIM34 BsAb L4H4 (bispecific antibody, human IgG1, V domains shown)
VH: QVQLVQSGAEVKKPGASVKVSCKASGYSFTDYNMYWVRQAPGQGLEWIGYIDPYKGGTNYAQKFQGRATLTVDKSSSTAYMELSRLRSDDTAVYYCAREMITAYYFDYWGQGSSVTVSS
VL: DIQMTQSPSSLSASVGDRVTITCKASQDINKYIAWYQHKPGKAPKLLIYYASNLQPGVPSRFSGSGSGRDFTFTISSLQPEDIATYYCLQYDNLLTFGAGTKLELK
notes: Tested as a humanized HIM34×CD3 BsAb in the IgG-scFv format (human IgG1 N297A/K322A, humanized OKT3 scFv on the light chain)
As for B2, in assay [1], binding was put at a Kd of 1650 pM, the off-rate constant (koff) worked out at 0.00743 s⁻¹ and the kon was determined as 4.5e+06 M⁻¹ s⁻¹.

B3: humanized HIM34 BsAb L4H7 (bispecific antibody, human IgG1, V domains shown)
VH: B2 VH with V5Q, N59I, A61N, Q65K, V72R, K74T, S76I
VL: B2 VL
notes: as for B2
On to B3, for which, in assay [1], the Kd is 198 pM, the off-rate (koff) was 0.00017 s⁻¹ and the kon stood at 861000 M⁻¹ s⁻¹.

B4: humanized HIM34 BsAb L3H4 (bispecific antibody, human IgG1, V domains shown)
VH: B2 VH
VL: B2 VL with Y49H, A51T, N53T, Q55E, P56T, R69T
notes: Tested as a humanized HIM34×CD3 BsAb in the IgG-scFv format: human IgG1 with N297A/K322A, humanized OKT3 scFv on the light chain C-terminus via (G4S)3
In assay [1], B4 displayed a Kd of 955 pM, a dissociation rate constant (koff) of 0.00175 s⁻¹ and a kon of 1.84e+06 M⁻¹ s⁻¹.

B5: humanized HIM34 BsAb L4H1 (bispecific antibody, human IgG1, V domains shown)
VH: B2 VH with V5Q, K12V, A68V, L70M
VL: B2 VL
notes: as for B2
In assay [1], B5 yielded a Kd of 1210 pM, a koff of 0.00597 s⁻¹ and a kon of 4.95e+06 M⁻¹ s⁻¹.
